According to US6734169B2, “Apolipoprotein A-I agonists and their use to treat dyslipidemic disorders” (priority 1997, dated 2004):

Molecular target: T1, LCAT (purified from human plasma) (Homo sapiens, UniProt P04180)
T1 construct: The reaction is initiated by addition of LCAT (purified from human plasma); from tissue
T1 sequence (P04180 25-440): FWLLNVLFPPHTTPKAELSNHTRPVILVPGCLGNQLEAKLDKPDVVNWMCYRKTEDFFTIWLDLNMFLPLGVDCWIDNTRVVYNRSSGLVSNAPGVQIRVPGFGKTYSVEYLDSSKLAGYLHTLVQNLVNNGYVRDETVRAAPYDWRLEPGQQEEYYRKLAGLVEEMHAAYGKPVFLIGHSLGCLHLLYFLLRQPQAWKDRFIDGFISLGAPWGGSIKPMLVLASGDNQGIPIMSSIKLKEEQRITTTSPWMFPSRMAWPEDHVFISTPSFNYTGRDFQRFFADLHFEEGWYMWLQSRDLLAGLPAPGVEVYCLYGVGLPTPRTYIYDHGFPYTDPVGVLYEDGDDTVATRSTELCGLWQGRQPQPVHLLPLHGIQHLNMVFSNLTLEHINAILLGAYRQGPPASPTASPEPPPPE
Experiment: LCAT activation assay
Format: biochemical
Conditions: LCAT activation as compared with native human ApoA-I (=100%); equivalent masses of peptide or ApoA-I; SUVs of EPC or POPC and radiolabelled cholesterol; listed as peptide 18AM4
Method: The peptides synthesized as described in Section 6, supra, were analyzed in vitro for their ability to activate LCAT. In the LCAT assay, substrate vesicles (small unilamellar vesicles or “SUVs”) composed of egg phophatidylcholine (EPC) or 1-Palmitoyl-2-oleyl-phosphatidylcholine (POPC) and radiolabelled cholesterol are preincubated with equivalent masses either of peptide or ApoA-I (isolated from human plasma). The reaction is initiated by addition of LCAT (purified from human plasma). Native ApoA-I, which was used as positive control, represents 100% activation activity. “Specific activity” (i.e., units of activity (LCAT activation)/unit of mass) of the peptides can be calculated as the concentration of peptide that achieves maximum LCAT activation. For example, a series of concentrations of the peptide (e.g., a limiting dilution) can be assayed to determine the “specific activity” for the peptide—the concentration which achieves maximal LCAT activation (i.e., percentage conversion of cholesterol to cholesterol ester) at a specific timepoint in the assay (e.g., 1 hr.). When plotting percentage conversion of cholesterol at, e.c., 1 hr., against the concentration of peptide used, the “specific activity” can be identified as the concentration of peptide that achieves a plateau on the plotted curve. […]

ACTIVITY (%) LCAT: less than 4%
Sequence: EWLEAFYKKVLEKLKELF [peptide 246]
